# Data taken from the supplement of paper PMC9112550, “Optimization of the antimicrobial peptide Bac7 by deep mutational scanning” (BMC Biology, 2022).
# Test system: Escherichia coli TOP10
# Test: shrunken log2 fold change of peptide-encoding DNA abundance (4.5 h post-induction vs induction); higher = less antimicrobial activity (less host growth inhibition)
# Details: time post-induction: 4.5 h; library: site-saturation at positions 5, 18, 19, 20
# 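Note: peptides expressed intracellularly from a pBAD plasmid library in pooled LB shake-flask culture, induced with 0.3% L-arabinose, DNA abundance read by NGS, three biological replicates, DESeq2 with apeglm shrinkage.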
row,Sequence,shrunken log2 fold change
1,RRIRPRPPRLPRPRPRPIHWPRP,0.225
2,RRIRHRPPRLPRPRPRPHESPRP,-0.0218
3,RRIRQRPPRLPRPRPRPCWAPRP,-0.139
4,RRIRERPPRLPRPRPRPDLKPRP,-0.108
5,RRIRSRPPRLPRPRPRPRAKPRP,0.244
6,RRIRDRPPRLPRPRPRPGYTPRP,-0.127
7,RRIRMRPPRLPRPRPRPLFMPRP,0.0387
8,RRIRIRPPRLPRPRPRPQPVPRP,-0.169
9,RRIRIRPPRLPRPRPRPTGYPRP,-0.73
10,RRIRWRPPRLPRPRPRPNLYPRP,-0.169
11,RRIRLRPPRLPRPRPRPKDRPRP,0.0663
12,RRIRHRPPRLPRPRPRPWWHPRP,-0.113
13,RRIRMRPPRLPRPRPRPMIEPRP,0.17
14,RRIRPRPPRLPRPRPRPQPAPRP,0.0892
15,RRIRLRPPRLPRPRPRPHQFPRP,0.0562
16,RRIRSRPPRLPRPRPRPNCWPRP,0.292
17,RRIRQRPPRLPRPRPRPKLLPRP,-0.153
18,RRIRYRPPRLPRPRPRPRLFPRP,-0.194
19,RRIRTRPPRLPRPRPRPAQKPRP,-0.00259
20,RRIRRRPPRLPRPRPRPENYPRP,0.0652
21,RRIRFRPPRLPRPRPRPYTEPRP,-0.631
22,RRIRARPPRLPRPRPRPHKNPRP,0.0543

row,Sequence,shrunken log2 fold change
1,RRIRNRPPRLPRPRPRPPYIPRP,-0.335
2,RRIRHRPPRLPRPRPRPLVQPRP,-0.0987
3,RRIRRRPPRLPRPRPRPRTNPRP,0.482
4,RRIRDRPPRLPRPRPRPPDDPRP,0.535
5,RRIRTRPPRLPRPRPRPRTDPRP,-0.0849
6,RRIRERPPRLPRPRPRPTEDPRP,-0.317
7,RRIRLRPPRLPRPRPRPCVCPRP,-0.00623
8,RRIRRRPPRLPRPRPRPHCFPRP,0.118
9,RRIRRRPPRLPRPRPRPDHHPRP,-0.254
10,RRIRGRPPRLPRPRPRPYFPPRP,-0.37
11,RRIRGRPPRLPRPRPRPEWFPRP,0.683
12,RRIRLRPPRLPRPRPRPEFEPRP,0.0191
13,RRIRVRPPRLPRPRPRPESHPRP,-0.138
14,RRIRERPPRLPRPRPRPQQAPRP,0.01
15,RRIRVRPPRLPRPRPRPAQLPRP,0.0744
16,RRIRKRPPRLPRPRPRPPTGPRP,0.265
17,RRIRMRPPRLPRPRPRPASIPRP,-0.015
18,RRIRHRPPRLPRPRPRPWLRPRP,-0.0716
19,RRIRLRPPRLPRPRPRPEADPRP,0.357
20,RRIRDRPPRLPRPRPRPQPQPRP,0.517
21,RRIRYRPPRLPRPRPRPIWLPRP,-0.175
22,RRIRQRPPRLPRPRPRPVYKPRP,-0.612

row,Sequence,shrunken log2 fold change
1,RRIRTRPPRLPRPRPRPKVYPRP,0.0324
2,RRIRARPPRLPRPRPRPAYVPRP,-0.118
3,RRIRYRPPRLPRPRPRPQLDPRP,-0.555
4,RRIRNRPPRLPRPRPRPTWRPRP,0.421
5,RRIRVRPPRLPRPRPRPSVGPRP,-0.659
6,RRIRKRPPRLPRPRPRPQVHPRP,-0.161
7,RRIRHRPPRLPRPRPRPASCPRP,-0.5
8,RRIRFRPPRLPRPRPRPRMPPRP,0.145
9,RRIRRRPPRLPRPRPRPYRIPRP,-0.594
10,RRIRVRPPRLPRPRPRPCSAPRP,0.0399
11,RRIRVRPPRLPRPRPRPCVHPRP,-0.192
12,RRIRQRPPRLPRPRPRPLGVPRP,0.0233
13,RRIRPRPPRLPRPRPRPNEVPRP,0.292
14,RRIRMRPPRLPRPRPRPHRTPRP,-0.177
15,RRIRDRPPRLPRPRPRPETWPRP,0.0111
16,RRIRPRPPRLPRPRPRPVRTPRP,0.385
17,RRIRKRPPRLPRPRPRPFNWPRP,0.00115
18,RRIRGRPPRLPRPRPRPACYPRP,0.896
19,RRIRHRPPRLPRPRPRPKTNPRP,-0.376
20,RRIRHRPPRLPRPRPRPNSGPRP,-0.194
21,RRIRDRPPRLPRPRPRPNPFPRP,-0.343
22,RRIRRRPPRLPRPRPRPVSFPRP,0.178

row,Sequence,shrunken log2 fold change
1,RRIRHRPPRLPRPRPRPYQFPRP,-0.0129
2,RRIRTRPPRLPRPRPRPPTYPRP,-0.149
3,RRIRQRPPRLPRPRPRPEKKPRP,-0.0138
4,RRIRIRPPRLPRPRPRPFEHPRP,-0.321
5,RRIRMRPPRLPRPRPRPYVCPRP,-0.00867
6,RRIRLRPPRLPRPRPRPPSYPRP,0.119
7,RRIRQRPPRLPRPRPRPLDQPRP,-0.635
8,RRIRWRPPRLPRPRPRPIARPRP,-0.00663
9,RRIRDRPPRLPRPRPRPNFRPRP,0.267
10,RRIRERPPRLPRPRPRPQSIPRP,-2.26
11,RRIRIRPPRLPRPRPRPPAAPRP,0.458
12,RRIRQRPPRLPRPRPRPKMHPRP,0.127
13,RRIRPRPPRLPRPRPRPKRLPRP,0.285
14,RRIRLRPPRLPRPRPRPCATPRP,0.331
15,RRIRGRPPRLPRPRPRPIMDPRP,0.0794
16,RRIRTRPPRLPRPRPRPCVLPRP,0.0134
17,RRIRYRPPRLPRPRPRPKYHPRP,-2.19
18,RRIRSRPPRLPRPRPRPWLWPRP,1.45
19,RRIRCRPPRLPRPRPRPSFSPRP,-0.571
20,RRIRHRPPRLPRPRPRPENRPRP,0.019
21,RRIRERPPRLPRPRPRPHFGPRP,-0.0492
22,RRIRFRPPRLPRPRPRPGKTPRP,-0.142

row,Sequence,shrunken log2 fold change
1,RRIRPRPPRLPRPRPRPYYTPRP,-0.379
2,RRIRARPPRLPRPRPRPASSPRP,0.16
3,RRIRNRPPRLPRPRPRPLWVPRP,-0.0871
4,RRIRSRPPRLPRPRPRPIPAPRP,-0.286
5,RRIRWRPPRLPRPRPRPGVQPRP,0.309
6,RRIRNRPPRLPRPRPRPVCGPRP,0.0972
7,RRIRTRPPRLPRPRPRPKVRPRP,0.0294
8,RRIRQRPPRLPRPRPRPGAMPRP,0.155
9,RRIRRRPPRLPRPRPRPHIGPRP,-0.155
10,RRIRQRPPRLPRPRPRPFCLPRP,-0.336
11,RRIRCRPPRLPRPRPRPPANPRP,0.521
12,RRIRHRPPRLPRPRPRPTDTPRP,-0.116
13,RRIRPRPPRLPRPRPRPFGIPRP,-0.21
14,RRIRFRPPRLPRPRPRPSTGPRP,-0.787
15,RRIRVRPPRLPRPRPRPNASPRP,0.147
16,RRIRTRPPRLPRPRPRPIAMPRP,-0.387
17,RRIRDRPPRLPRPRPRPDAWPRP,0.816
18,RRIRARPPRLPRPRPRPNKLPRP,-0.206
19,RRIRWRPPRLPRPRPRPWTYPRP,-0.0122
20,RRIRARPPRLPRPRPRPFKAPRP,0.0354
21,RRIRARPPRLPRPRPRPNKAPRP,0.00219
